# In patent US20230357447A1 (JANUX THERAPEUTICS, published 2023):
# Columns and labels:
# [1] = target: T1, anti-CD28 scFv (VH-linker 1-VL) (biotinylated (site not stated)); test: phage ELISA; scFv wells pre-incubated with soluble CD28 (competitor);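 further: crude clonal phage supernatants added to wells pretreated with soluble CD28 in blocking buffer, bound phage read via HRP-linked anti-M13 antibody, reference wells got blocking buffer only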
# T1 construct: Captured as biotinylated scFv on neutravidin coated plates in the phage ELISA
# [2] = target: T1, anti-CD28 scFv (VH-linker 1-VL); test: phage ELISA; biotinylated scFv on neutravidin plate; anti-M13-HRP;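 further: crude clonal phage supernatant added to wells pre-incubated with soluble CD28 protein or only blocking buffer, then washed, bound phage read out with an HRP-linked anti-M13 antibody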
# Experimental: (§1) Clonal phage were harvested as crude supernatants and screened via standard enzyme linked immunosorbent assays (ELISAs). […] Prior to the addition of clonal phage, wells were incubated with blocking buffer and CD28 soluble protein or blocking buffer alone. Without washing or aspirating, clonal phage supernatants were then added to the wells and incubated for a short time. Wells were then washed followed by detection of bound phage using a horse radish peroxidase conjugated anti-M13 antibody.
# [3] = target: T2, Anti-CD28 scFv (VH-linker 1-VL) (biotinylated (site not stated)); test: phage binding ELISA on captured biotinylated anti-CD28 scFv;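 further: crude clonal phage supernatants applied to the wells, bound phage read out with an HRP-conjugated anti-M13 antibody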
# T2 construct: biotinylated and captured on neutravidin coated plates in the phage ELISA
# [4] = target: T2, Anti-CD28 scFv (VH-linker 1-VL); test: phage binding ELISA on captured anti-CD28 scFv, wells pre-incubated with soluble CD28 (competitor);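 further: crude clonal phage supernatants added without washing, bound phage detected by HRP-conjugated anti-M13 antibody, control wells held blocking buffer alone instead of CD28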
# Experimental: as §1
# T1 sequence (scFv, as listed by the source): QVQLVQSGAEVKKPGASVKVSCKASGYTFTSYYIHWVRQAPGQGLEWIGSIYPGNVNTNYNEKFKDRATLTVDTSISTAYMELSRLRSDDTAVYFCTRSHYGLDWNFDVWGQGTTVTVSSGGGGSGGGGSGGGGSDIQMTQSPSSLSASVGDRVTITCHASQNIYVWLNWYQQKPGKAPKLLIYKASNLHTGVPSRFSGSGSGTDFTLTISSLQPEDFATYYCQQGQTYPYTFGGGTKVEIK
# T2 sequence (scFv, as listed by the source): as above
Binder,CD28 scFv signal in presence of CD28 [1],CD28 scFv signal [2],CD28 scFv signal [3],CD28 scFv signal in presence of CD28 [4]
MDWCPRHLWHECYS (on phage (pIII fusion)) [Phage-241 clonal phage peptide],0.374,2.58,,
MDWCARFVGYGCLD (on phage (pIII fusion)) [Phage-232 clonal phage peptide],0.074,0.065,,
FDFCPTTMWTYCQH (on phage (pIII fusion)) [Phage-220 clonal phage peptide],0.081,0.086,,
MDWCPWDMWDKCFN (on phage (pIII fusion)) [Phage-217 clonal phage peptide],0.108,0.586,,
MDWCPPYLWSECFA (on phage (pIII fusion)) [Phage-238 clonal phage peptide],0.234,2.6,,
MDWCPRYLWSECFA (on phage (pIII fusion)) [Phage-254 clonal phage peptide],0.513,2.71,,
MDWCPRHLWFECFN (on phage (pIII fusion)) [Phage-293 clonal phage peptide],0.171,2.49,,
MDWCPRHLWYECFN (on phage (pIII fusion)) [Phage-243 clonal phage peptide],0.167,2.41,,
MDWCPIHLWNECFN (on phage (pIII fusion)) [Phage-314 clonal phage peptide],0.157,2.35,,
MDWCPRHLWFECFF (on phage (pIII fusion)) [Phage-300 clonal phage peptide],0.479,2.45,,
MDWCPRALWFECFF (on phage (pIII fusion)) [Phage-234 clonal phage peptide],0.331,2.67,,
MDWCPRHLWNECFA (on phage (pIII fusion)) [Phage-306 clonal phage peptide],0.17,2.39,,
MDWCPRHLWNECFN (on phage (pIII fusion)) [Phage-283 clonal phage peptide],0.393,2.65,,
MDWCPRDQWHNCFN (on phage (pIII fusion)) [Phage-222 clonal phage peptide],0.078,0.2,,
VPWCQIISGLECLT (on phage (pIII fusion)) [Phage-229 clonal phage peptide],0.077,0.174,,
APWCQIISGLECLT (on phage (pIII fusion)) [Phage-230 clonal phage peptide],0.078,0.169,,
MYWCPINMWDYCYA [Phage-422],,,0.109,0.088
MFWCPSTMWNRCFD [Phage-420],,,0.464,0.138
MDWCPRYLWHVCFN (on phage (pIII fusion)) [Phage-239 clonal phage peptide],0.409,2.6,,
MDWCPRDLWTECFS (on phage (pIII fusion)) [Phage-305 clonal phage peptide],0.174,2.4,,
MDWCPSYLWHECFF (on phage (pIII fusion)) [Phage-237 clonal phage peptide],0.447,2.61,,
MDWCPRYLWHECFS (on phage (pIII fusion)) [Phage-235 clonal phage peptide],0.303,2.65,,
MDWCPRHLWSVCFN (on phage (pIII fusion)) [Phage-255 clonal phage peptide],0.825,2.65,,
MDWCPRYLWHECFF (on phage (pIII fusion)) [Phage-301 clonal phage peptide],0.682,2.45,,

Binder,CD28 scFv signal in presence of CD28 [1],CD28 scFv signal [2],CD28 scFv signal [3],CD28 scFv signal in presence of CD28 [4]
MDWCPRTLWHVCFN (on phage (pIII fusion)) [Phage-240 clonal phage peptide],0.551,2.6,,
MDWCPRSLWHVCFN (on phage (pIII fusion)) [Phage-258 clonal phage peptide],0.238,2.41,,
MDWCPRYLWHVCFY (on phage (pIII fusion)) [Phage-291 clonal phage peptide],1.14,2.5,,
MDWCPRYLWHVCFD (on phage (pIII fusion)) [Phage-302 clonal phage peptide],0.31,2.44,,
MDWCPRHLWHVCFN (on phage (pIII fusion)) [Phage-264 clonal phage peptide],0.636,2.67,,
MDWCPRYLWTECFS (on phage (pIII fusion)) [Phage-303 clonal phage peptide],0.329,2.42,,
MDWCPRYLWHECFD (on phage (pIII fusion)) [Phage-244 clonal phage peptide],0.177,2.07,,
MDWCPKHLWNKCFN (on phage (pIII fusion)) [Phage-246 clonal phage peptide],0.092,1.16,,
IYWCPTAMWNRCSA [Phage-417],,,0.817,0.073
MTWCPTSFWNRCLD (on phage (pIII fusion)) [Phage-233 clonal phage peptide],0.405,0.392,,
MDWCPKDRWNDCYF (on phage (pIII fusion)) [Phage-224 clonal phage peptide],,1.09,,
MDWCPKHLWTECFA (on phage (pIII fusion)) [Phage-242 clonal phage peptide],0.145,2.49,,
MDWCPRDRWIDCFN (on phage (pIII fusion)) [Phage-226 clonal phage peptide],0.131,0.339,,
MDWCPRDRWSDCFN (on phage (pIII fusion)) [Phage-227 clonal phage peptide],0.074,0.102,,
MDWCPRNLWHLCFA (on phage (pIII fusion)) [Phage-245 clonal phage peptide],0.164,1.4,,
MDWCPRDRWVDCFF (on phage (pIII fusion)) [Phage-223 clonal phage peptide],0.14,1.58,,
MDWCPRDRWADCFF (on phage (pIII fusion)) [Phage-225 clonal phage peptide],0.089,0.392,,
ITWCHVISGLECWN (on phage (pIII fusion)) [Phage-228 clonal phage peptide],0.1,0.193,,
MYWCPKYMWSECFA [Phage-418],,,0.741,0.099
NYWCPSSMWNRCLH (on phage (pIII fusion)) [Phage-219 clonal phage peptide],0.088,0.158,,
TFGCPTTMWNRCFA (on phage (pIII fusion)) [Phage-218 clonal phage peptide],0.068,0.181,,
VPWCLIISGLDCLN (on phage (pIII fusion)) [Phage-231 clonal phage peptide],0.09,0.107,,
TTWCPTSMWLHCFD (on phage (pIII fusion)) [Phage-221 clonal phage peptide],0.072,0.074,,
